Article PMC11148020, “PPIA dictates NRF2 stability to promote lung cancer progression” (Nature Communications, 2024)

Target: T1, Recombinant PPIA protein (PPIA WT) (human, UniProt P62937 1-165, 15N-labeled in the NMR experiment)
T1 construct: peptidylprolyl isomerase A (PPIA, CypA), called full-length PPIA for the co-crystal; free in solution for crystal and NMR; also called full-length PPIA; 15N-labeled PPIA; source: E. coli BL21 (DE3), purified (Ni-NTA; for crystallization also Superdex 75 gel filtration)
Test: crystal structure; PPIA (50 mg/mL) incubated with PBM peptide (2 mM) at 4 °C for 2 h; hanging-drop co-crystallization, 25 mM Hepes, 25% PEG 3350, 5 mM TCEP, pH 7.5; 1.81 Å
Conditions: both partners purified

T1 sequence (P62937 whole entry): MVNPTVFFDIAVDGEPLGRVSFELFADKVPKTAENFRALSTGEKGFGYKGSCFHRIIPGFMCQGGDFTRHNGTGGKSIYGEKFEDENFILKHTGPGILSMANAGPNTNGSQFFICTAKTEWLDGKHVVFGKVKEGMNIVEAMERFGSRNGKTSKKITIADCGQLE

binding result: binds
B1: NRF2 fragment PPIA-Binding Motif (PBM) peptide (peptide)
peptide: VAQVAPVD
notes: NRF2 residues 169-176, in the linker between the Neh4 and Neh5 domains; also called NRF2-PBM; source: synthetic peptide
